Assay results taken from paper PMC7772355, “Transmembrane Peptides as a New Strategy to Inhibit Neuraminidase-1 Activation” (Frontiers in Cell and Developmental Biology, 2020).

B1: hNEU1-TMS2 (domain or fragment)
chain: not shown
modifications: 15N-labeled
notes: human NEU1, residues R305-R341, holding the transmembrane segment TM2; Embedded in DPC micelles for NMR; also called hNEU1/TMS2 fragment; hNEU1 TM2 segment; source: bacterial expression and purification as described in Maurice et al. (2016)

Experiments:
[1] = target: the molecule itself; experiment: NMR titration; homodimerisation: 0.4 mM 15N-labeled hNEU1-TMS2 in DPC micelles, D/P 50 titrated with DPC to 110 (further samples to D/P 200); pH 6.5, 20 mM sodium phosphate, 313 K, 800 MHz, 1H/15N-TROSY
hNEU1-TMS2 = target: B1; experiment: NMR titration; heterodimerisation: 0.3 mM 15N-labeled hNEU1-TMS2 in DPC micelles (D/P 120) titrated with unlabeled recombinant peptide in micelles up to N/I of 1 (D/P near 100); pH 6.5, 20 mM sodium phosphate, 313 K, 1H/15N-TROSY; settings: both partners purified

| Binder | stoichiometry N [1] | binding result (hNEU1-TMS2) |
| --- | --- | --- |
| B1 | 2 | – |
| GSMWHHHHHHGGELVDPVVVAIAVVTSSIIAFFSN (holds the His6; not NEU1; human NEU1, TM2 segment with four point mutations; The gene construct had GB1 as leading fusion protein followed by a thrombin cleavage site; the printed peptide begins with GS, so GB1 was probably cleaved off (surmised); Unlabeled; embedded in DPC micelles; also called recombinant version of the four-point mutated peptide IntPep; source: continuous exchange cell-free …) [mutIntPepR] | – | binds |
